Measurements: article PMC7913688, “Human Rev1 relies on insert-2 to promote selective binding and accurate replication of stabilized G-quadruplex motifs”
Positions count from the first letter of the chain named.

T1: hRev1 330-833 Y470A (human, UniProt Q9UBZ9 330-833, Y470A)
T1 sequence: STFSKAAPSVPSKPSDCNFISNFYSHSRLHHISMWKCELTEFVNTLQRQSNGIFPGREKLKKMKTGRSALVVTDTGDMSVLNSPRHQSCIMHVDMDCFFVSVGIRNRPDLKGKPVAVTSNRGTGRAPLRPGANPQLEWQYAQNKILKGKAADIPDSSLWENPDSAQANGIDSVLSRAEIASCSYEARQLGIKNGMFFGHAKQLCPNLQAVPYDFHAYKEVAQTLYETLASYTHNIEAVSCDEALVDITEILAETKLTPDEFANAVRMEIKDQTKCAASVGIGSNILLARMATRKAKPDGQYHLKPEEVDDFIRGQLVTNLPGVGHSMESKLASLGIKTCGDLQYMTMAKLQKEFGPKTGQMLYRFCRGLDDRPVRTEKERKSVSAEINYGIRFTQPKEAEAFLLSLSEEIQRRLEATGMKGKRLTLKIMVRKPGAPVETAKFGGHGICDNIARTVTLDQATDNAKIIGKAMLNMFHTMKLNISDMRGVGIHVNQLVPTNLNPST

T2: hRev1 330-833 E466K (human, UniProt Q9UBZ9 330-833, E466K)
T2 sequence: T1 sequence with E137K, A141Y

T3: hRev1 330-833 E466A (human, UniProt Q9UBZ9 330-833, E466A)
T3 sequence: T1 sequence with E137A, A141Y

T4: hRev1 330-833 polymerase core (human, UniProt Q9UBZ9 330-833)
T4 sequence: T1 sequence with A141Y

B1: Myc 14/23 ss G4 (structured_DNA)
DNA: AGGGTGGGTAGGGTGGGTTATGAGATGAT
B2: Non-G4 Myc control ss (ssDNA)
DNA: AGCGTGCGTAGCGTGCGTTATGAGATGAT

How the values were obtained:
[1] = molecular target: T1, hRev1 330-833 Y470A; experiment: fluorescence polarization; 100 mM KCl?; Fluorescence polarization: 1 nM FAM-DNA, 100 mM KCl or LiCl; DNA annealed in 50 mM HEPES pH 7.5; full buffer as in cited ref 17, temperature not stated. Footprinting: 50 mM HEPES pH 7.5, 100 mM KCl, 10 uM protein, 30 uM ssDNA, room temperature; settings: protein: recombinant, label: 5'-FAM
[2] = molecular target: T2, hRev1 330-833 E466K; experiment: as above; settings: protein: recombinant, label: 5'-FAM
[3] = molecular target: T3, hRev1 330-833 E466A; experiment: as above; settings: protein: recombinant, label: 5'-FAM
[4] = molecular target: T4, hRev1 330-833 polymerase core; experiment: fluorescence polarization; 100 mM LiCl; Fluorescence polarization: 1 nM FAM-DNA, 100 mM KCl or LiCl; DNA annealed in 50 mM HEPES pH 7.5; full buffer as in cited ref 17, temperature not stated. Footprinting: 50 mM HEPES pH 7.5, 100 mM KCl, 10 uM protein, 30 uM ssDNA, room temperature; settings: protein: recombinant; label: 5'-FAM
[5] = parallel G4 (1:2:1 loops) in K+

Binder	Kd [1, 5] [nM]	Kd [2, 5] [nM]	Kd [3, 5] [nM]	Kd [4] [nM]	Kd [1] [nM]	Kd [2] [nM]	Kd [3] [nM]
B1	180 ± 30	43 ± 16	280 ± 20	–	–	–	–
B2	–	–	–	760 ± 290	740 ± 180	1300 ± 300	1100 ± 130
